The values that follow come from patent EP4527849A1 (Universitätsmedizin der Johannes Gutenberg-Universität Mainz, dated 2025).

For assay [1], the target named is T1, full-length murine PD-L1 (murine, UniProt Q9EP73 19-290).
T1 construct: whole, on cells; also called mPD-L1; murine homologue of PD-L1
The experiment in a line: IFNg-ELISPOT; TCR-transduced T cells on 293T B2M/CIITA knockout cells transfected with full-length murine PD-L1.

Assay [2] has as its target T2, human PD-L1 (Programmed death-ligand 1) (human, UniProt Q9NZQ7 19-290).
T2 construct: No signal peptide limits are stated; also called CD274; B7-H1
Put plainly: IFNg-ELISPOT with TCR-transduced T cells and blocking anti-PD-L1 antibodies; binding inferred from recognition.

The target of assay [3] is T2, human PD-L1 (Programmed death-ligand 1). Put plainly: IFNg-ELISPOT on 293T B2M/CIITA knockout cells transfected with full-length or single-domain PD-L1 constructs; binding inferred from recognition.

T1 sequence (Q9EP73 19-290): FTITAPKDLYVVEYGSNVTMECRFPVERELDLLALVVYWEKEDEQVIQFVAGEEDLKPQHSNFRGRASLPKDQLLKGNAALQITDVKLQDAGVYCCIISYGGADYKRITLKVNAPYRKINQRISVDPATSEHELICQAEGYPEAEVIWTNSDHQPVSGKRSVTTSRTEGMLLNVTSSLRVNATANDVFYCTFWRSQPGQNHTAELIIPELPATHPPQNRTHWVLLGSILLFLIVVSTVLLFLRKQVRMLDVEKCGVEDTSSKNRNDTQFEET
T2 sequence (Q9NZQ7 19-290 limits assumed): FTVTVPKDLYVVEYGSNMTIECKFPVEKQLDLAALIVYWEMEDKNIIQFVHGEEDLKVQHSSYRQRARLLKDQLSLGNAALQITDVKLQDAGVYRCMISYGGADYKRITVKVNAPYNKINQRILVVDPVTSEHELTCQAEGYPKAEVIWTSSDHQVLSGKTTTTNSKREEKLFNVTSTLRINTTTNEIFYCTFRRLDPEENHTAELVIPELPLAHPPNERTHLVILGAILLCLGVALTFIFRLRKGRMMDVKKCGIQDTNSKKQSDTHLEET

B1: chimerized TCR construct 11C/34 (TCR, V domains shown)
V domain 1: EPEVTQTPSHQVTQMGQEVILRCVPISNHLYFYWYRQILGQKVEFLVSFYNNEISEKSEIFDDQFSVERPDGSNFTLKIRSTKLEDSAMYFCASSLRLGWIPGNEQFFGPGTRLTVLE
V domain 2: AQSVTQPDIHITVSEGASLELRCNYSYGATPYLFWYVQSPGQGLQLLLKYFSGDTLVQGIKGFEAEFKRSQSSFNLRKPSVHWSDAAEYFCAVGFMDSSYKLIFGSGTRLLVRP
notes: In the assays the TCR stood as an alpha/beta heterodimer on transduced human T cells whose endogenous TCR was knocked out; also called cTCR 11C/34; TCR 11C/34
In the case of B1, the binding result in assay [1] is reported as “no binding”; in assay [2], “binds”.

B2: chimerized TCR construct 11C/25 (TCR, V domains shown)
V domain 1: EAQVTQNPRYLITVTGKKLTVTCSQNMNHEYMSWYRQDPGLGLRQIYYSMNVEVTDKGDVPEGYKVSRKEKRNFPLILESPSPNQTSLYFCASSLSPAPPSIWSYNEQFFGPGTRLTVLE
V domain 2: AQSVTQLDSQVPVFEEAPVELRCNYSSSVSVYLFWYVQYPNQGLQLLLKYLSGSTLVKGINGFEAEFNKSQTSFHLRKPSVHISDTAEYFCAVSKLAGRRALTFGSGTRLQVQP
notes: In the assays the TCR stood as an alpha/beta heterodimer on transduced human T cells whose endogenous TCR was knocked out; also called cTCR 11C/25; TCR 11C/25
For B2, the binding result is listed as “no binding” in assay [1] and “binds” in assay [3].
